Measurements: paper PMC3695626 (Cell, 2013)

Molecular target: the molecule itself
Assay: cryo-EM structure

B1: GroES (natural protein, E. coli)
chain: MNIRPLHDRVIVKRKEVETKSAGGIVLTGSAAAKSTRGEVLAVGNGRILENGEVKPLDVKVGDIVIFNDGYGVKSEKIDNEEVLIMSESDILAIVEA
For B1, the “stoichiometry N” value was 7.
